# According to the DeepSol protein solubility set:
# Test: soluble on expression in E. coli; label from the status in PepcDB or PDB records
row,Sequence,soluble on expression in E. coli
1,MTSLVAYGSDSEGEDDDFFGKPTTEKEETTKNAEKEKEEESEKIAESDEKPTISSFFFSGDDDKAGSSDSDDSEGESVGPKKKRRSGESVTELDKEFTSSIFDNDYAREERMNARMLSRHVDLSDKPSEKERKKSKFTCKNYLKGKCRFGDKCRFSHPVHNRSSDAVNEVSISSEAKFYTTETPEAQVFHSKKFKSSAGQ,not soluble
2,MTSNDSSENLRNRLAEKMAGDITLSEKPGESLKKWRLNFEISQTDIANYLKVSPSVISDYESGRRKSPGTLIVRKIVESLLEIDLERGGKKIHTYETMLNAESGSKSIYSTYEYTLPIQLAKLVNLIEGDIVYKGIEKPLYGFSVVDSQRAILELSSHEFQKLYGWSTDRAMIFTKVSTGKSPLVAIRVTNLKPGAVVLHGLRKEEVESVAVKMAEVDRVPLVATTMDLDQIVQLLKKYSQYYARE,not soluble
3,MTSTFDRVATIIAETCDIPRETITPESHAIDDLGIDSLDFLDIAFAIDKAFGIKLPLEKWTQEVNDGKATTEQYFVLKNLAARIDELVAAKGALEHHHHHH,soluble
4,MTSVTSSATSSPEPPTKVAAAMQTTTGETSISNETSFNASRETSLTALGFLDYLDEEQRAALLGEGLDISTLTWANQVTALRVLESLFNEHAYELVSAVIQHVAQEPGDNPHHFLKFSPEPSTENSWELTLDGPTVGLKVTFDPDGQITFKDAHLGLSPAEVVSVTEALDTSYSESQIKKAAEQLVGSLNPTQQAALQGSGLRGAQLTEEQKTLFLKMTSNWIDLANGDSGSEQQEEIADTFSDTYIIWNEQKDGSAFFQMKGPELDFSYKESVPENAELSARGVPNIQTSFQSPLEHHHHHH,soluble
5,MTTETIQSNANLAPLPPHVPEHLVFDFDMYNPSNLSAGVQEAWAVLQESNVPDLVWTRCNGGHWIATRGQLIREAYEDYRHFSSECPFIPREAGEAYDFIPTSMDPPEQRQFRALANQVVGMPVVDKLENRIQELACSLIESLRPQGQCNFTEDYAEPFPIRIFMLLAGLPEEDIPHLKYLTDQMTRPDGSMTFAEAKEALYDYLIPIIEQRRQKPGTDAISIVANGQVNGRPITSDEAKRMCGLLLVGGLDTVVNFLSFSMEFLAKSPEHRQELIERPERIPAACEELLRRFSLVADGRILTSDYEFHGVQLKKGDQILLPQMLSGLDERENACPMHVDFSRQKVSHTTFGHGSHLCLGQHLARREIIVTLKEWLTRIPDFSIAPGAQIQHKSGIVSGVQALPLVWDPATTKAVHHHHHH,soluble
6,MTTKRIDRDLPSSDDPSSAKRRIEFPEETLENDGAAAIKLLSLLLQCAEYVATDHLREASTLLSEISEICSPFGSSPERVVAYFAQALQTRVISSYLSGACSPLSEKPLTVVQSQKIFSALQTYNSVSPLIKFSHFTANQAIFQALDGEDSVHIIDLDVMQGLQWPALFHILASRPRKLRSIRITGFGSSSDLLASTGRRLADFASSLNLPFEFHPIEGIIGNLIDPSQLATRQGEAVVVHWMQHRLYDVTGNNLETLEILRRLKPNLITVVEQELSYDDGGSFLGRFVEALHYYSALFDALGDGLGEESGERFTVEQIVLGTEIRNIVAHGGGRRKRMKWKEELSRVGFRPVSLRGNPATQAGLLLGMLPWNGYTLVEENGTLRLGWKDLSLLTASAWKSQPFD,soluble
7,MTTMNPFLVQSTLPYLAPHFDQIANHHYRPAFDEGMQQKRAEIAAIALNPQTPDFNNTILALEQSGELITRVTSVFFAMTAAHTNDELQRLDEQFSAELAELANDIYLNGELFARVDAVWQRRESLGLDSESIRLVEVIHQRFVLAGAKLAQADKAKLKVLNTEAATLTSQFNQRLLAANKSGGLVVNDIAQLAGMSEQEIALAAEAAREKGLDNKWLIPLLNTTQQPALAEMRDRATREKLFIAGWTRAEKNDANDTRAIIQRLVEIRAQQAKLLGFPHYAAWKIADQMAKTPEAALNFMREIVPAARQRASDELASIQAVIDKQQGGFSAQPWDWAFYAEQVRREKFDLDEAQLRPYFELNTVLNEGVFWTANQLFGIKFVERFDIPVYHPDVRVWEIFDHNGVGLALFYGDFFARDSKSGGAWMGNFVEQSTLNETHPVIYNVCNYQKPAAGEPALLLWDDVITLFHEFGHTLHGLFARQRYATLSGTNTPRDFVEFPSQINEHWATHPQVFARYARHYQSGAAMPDELQQKMRNASLFNKGYEMSELLSAALLDMRWHCLEENEAMQDVDDFELRALVAENMDLPAIPPRYRSSYFAHIFGGGYAAGYYAYLWTQMLADDGYQWFVEQGGLTRENGQRFREAILSRGNSEDLERLHRQWRGKAPQIMPMLQHRGLNI,not soluble
8,MTTNAIDGSLWLTNAVQPERKTGNQILGKDDFLKILLAQLENQDPLNPMEDKDFIAQMASFSSLEQMMNIANLMQQWMQASSRDALLRYSEWIGKTVHWQDGETMMSAVVQSVMQKDGQVTLGLDNGTTIAADAVVKVEQKG,not soluble
9,MTTSLIHMANHLDASTEEISLNYVLLGHPHHERAQHHPSYMDMIKGAIQAIDNGTGSSKAAILKYIAQNYHVGENLPKVNNHLRSVLKKAVDSGDIEQTRGHGATGSFRMGKECEKNLQVGIPVQTKPMLMLKEVRQKLENISKAEKTKPSTSSMSTNKKGKPISTMKKRGVMSKKRSSKNKMAPKAKSHGLKKKGPATKSSGLVHKAAGAKNEAAPTTKMELRTGTRKSYC,not soluble
10,MTTSPDPYAALPKLPSFSLTSTSITDGQPLATPQVSGIMGAGGADASPQLRWSGFPSETRSFAVTVYDPDAPTLSGFWHWAVANLPANVTELPEGVGDGRELPGGALTLVNDAGMRRYVGAAPPPGHGVHRYYVAVHAVKVEKLDLPEDASPAYLGFNLFQHAIARAVIFGTYEQR,soluble
11,MTTVQTSVYEPLTEPKAVSLAVRLGLFRDGAPLACREIGDGNLNLVFHIVDQETKQGVIIKQALPYAKVVGESWPLTLKRAVIESNALRTFASYVPQYVPKVYYSDESLAITVMEDLSRLQIARKGLIEGKTYPLLSQHIGEFVAKTAFYTSDFGMNQQEKKKLAQSFVNPELCKITEDLVFTDPFFDHETNNFEDELRPDVEALWRDDRLHLEAAKLKRKFLTEADVLLHGDLHTGSIFVSADETKVIDPEFAFYGPIGFDLGQFFANLLLNALSRSELERQPLFDHIDRTWDVFASVFSNLWCTESVETYAATPGLLEDVLRHAFIDAVGFAGCEVIRRTIGLAHVADLDGIEHKDERLVAKRHALRLGRRLIIERRVFTGTEDFRRLFAETEQ,not soluble
12,MTTVRQRIDTQHRDAIHDAQLNIYGSRLATCGSDRLVKIFEVRPNGQSYPMAELVGHSGPVWKVSWAHPKYGGLLASASYDKKVIIWNEQQGRWQKAYEWAAHEASTTCVAFAPHQYGLMLASASADGDIGILRYDNSSNEWISSKIQKCHEQGVNSVCWAPGSADPAAKKRLVSAGNDKNVKIWAFDDATNEWILEKTLAGHTDFVREAAWCPVTNNGQHTIVSCGMEGNLVLFRTSNIETEEWKAKLLETAPCALYHSSFSPCGSFLSVAGDDNVITIWRENLQGQWIKVPRDNKEREGMSQAVGAPGAQR,not soluble
13,MTTYTSIANVIKERRSVRTFTDKAVEKDLLIELLNDATWAPNHKHREPWNCKLYIGEGRKKLVDAVLNSFTEEERAKRGKILSDRFLSTPAQIVVYMNEDPRQIQRDEDYAATCAFMQNFQLLAWERGLGCVWKSGGLNYNPLFIEGIGLTRGQRIVGILHIGYFDKAPEGKARTPITEKMEIIEG,soluble
14,MTVAQLIDIDAKKTKTSNEVYQTSTMLALLDGIYDGVISFEDLKKHGDFGIGTFDQLDGEMIAFDNEFYHLRSDGSAEKVEPEETTPFATVTFFEKEMSYTVERPMNREEVEALLHELMPSKNLFYGIRMDGTFREVRTRTVPRQEKPYTPLVEVTKSQPIFSFENTEGTLAGFWTPDYAQGIGVAGFHLHYIDDERSGGGHVFDYVIENCTIQICQKAHMHLALPETADFMAAALSRENLEDNIATAEGAE,not soluble
15,MTVASTLGLNETQYATDDCLEEIINNTRAVRQDSEKTRFKLQINNFLAEVASGSLVINSDLIGSIEKRIADIDKLMSEQLSLIMHATEFQKIESAWTGLYKLVQASVTENVKYTVLHCTKKELLKDFKSASDFDQSVLFKNIYESEYGTFGGTPYSAFVGDFYFDNTPQDIDLLEHISHVAASAHAPFLSAIAPGMLSMSSFSELPYPRDLAKLFETTDYARWRSFRQTDDSRYVGLTLPQSLGRIPYGMKTIPAETFNFEEHISEDNSGKDYLWVNTAFELACRIVDAFEEYGWCAAIRGVEGGGLVKSLPAYNYVSHTGERLLQCPTEVAISDRREKELSDLGFIPLVYCKGTDFAAFFAVQSVNKARLYNTDQANANAKLSSQLQYILATSRFAHYLKVIVRDKVGSFMSRTECQTYLQNWIMQYVVASDNAGQETKARYPLREASVEVIEVPGSPGNYRAIAWIKPHFQLEGLSMSLRLVADLPSSVS,not soluble
16,MTVDSIPLNTGAQLPLFGLGTWQVKDEAELTVALRAALDAGYRLIDTAHLYQNEHIIGKVLHEYISSGKLKREDIFVTSKLPFTAHAPEDVPKCVESQLKALQLEYIDLYLIHCPFPFKHQEGSFAPLMENGELAVTEIAHIDTWRALEKLYKEGKLKALGVSNFSCNQLQALYDAAEVKPANQQVECHIYWPQQELRALCKKLGVTVTAYAPLGSPGRKAARPDGVWPEGDPLLEPIVKQLAAKYHKTAAQILIRHLTQHGISTIPKSVSPDRIVENISTFDFKLSDEDMHTLNSIETRTRLFIADFAVKHPFFPHDDIDTSKVPKVGIRLH,soluble
17,MTVESVNPETRAPAAPGAPELREPPVAGGGVPLLGHGWRLARDPLAFMSQLRDHGDVVRIKLGPKTVYAVTNPELTGALALNPDYHIAGPLWESLEGLLGKEGVATANGPLHRRQRRTIQPAFRLDAIPAYGPIMEEEAHALTERWQPGKTVDATSESFRVAVRVAARCLLRGQYMDERAERLCVALATVFRGMYRRMVVPLGPLYRLPLPANRRFNDALADLHLLVDEIIAERRASGQKPDDLLTALLEAKDDNGDPIGEQEIHDQVVAILTPGSETIASTIMWLLQALADHPEHADRIRDEVEAVTGGRPVAFEDVRKLRHTGNVIVEAMRLRPAVWVLTRRAVAESELGGYRIPAGADIIYSPYAIQRDPKSYDDNLEFDPDRWLPERAANVPKYAMKPFSAGKRKCPSDHFSMAQLTLITAALATKYRFEQVAGSNDAVRVGITLRPHDLLVRPVARHHHHHH,soluble
18,MTVEVDEYLNFCGTINEFISAHMLCLGMSVNNYEHRYIWDEILTSKSIKIRPFPFEKTARRSISGMIIKDDYETTLAYNSNMGEKRKNFTISHELIHAMYHLDSENKVFTDTKDTLSYSLADILPEFQANIGASSILLPEPVLINELKKGTPPYFISNRYGISEQAIFMRLLQQMQASFEASYVAAYDTANKIMNGNSKNLAIELGRNLERKILYSNPFYEAITL,not soluble
19,MTVFRQENVDDYYDTGEELGSGQFAVVKKCREKSTGLQYAAKFIKKRRTKSSRRGVSREDIEREVSILKEIQHPNVITLHEVYENKTDVILILELVAGGELFDFLAEKESLTEEEATEFLKQILNGVYYLHSLQIAHFDLKPENIMLLDRNVPKPRIKIIDFGLAHKIDFGNEFKNIFGTPEFVAPEIVNYEPLGLEADMWSIGVITYILLSGASPFLGDTKQETLANVSAVNYEFEDEYFSNTSALAKDFIRRLLVKDPKKRMTIQDSLQHPWIKPKDTQQALSRKASAVNMEKFKKFAARKKWKQSVRLISLCQRLSRSFLSRSNMSVARSD,soluble
20,MTVLSPSLPHAAGIDAALVENPWLGLRRSGRYFQNAETEALFARALGYARAGVCVHLAGPAGLGKTTLALRIAQALGRPVAFMTGNEWLGSRDFIGGEIGQTVTSVVDRYIQSVRRTEQSARIDWKESILGQAMRCGQTFIYDEFTRASPEANAALLSVLEEGVLVSTDGASRHQYIEAHPDFRVLLTSNPHEYQGVKAAPDALIDRMVTLRLEEPSAPTLAGIVALRSGLDPATARRIVDLILSVQRSGEMQAPPSMRTAILVARLAAPLRLAGRLSDAALAEIAADVLRGRGLEADAAAFEAKLAAPTPGETARLEHHHHHH,not soluble
